Measurements from patent US20190010233A1.

What was measured:
[1] = molecular target: recombinant human PD-1^ECD-hFc protein (human) (UniProt Q15116); experiment: ELISA, coated PD-1-hFc, 0.008 µg/mL
[2] = molecular target: recombinant human PD-1^ECD-hFc protein (human) (UniProt Q15116); experiment: ELISA, coated PD-1-hFc, 0.00001 µg/mL
[3] = molecular target: recombinant human PD-1^ECD-hFc protein (human) (UniProt Q15116); experiment: ELISA, coated PD-1-hFc, 0.0016 µg/mL
[4] = molecular target: recombinant human PD-1^ECD-hFc protein (human) (UniProt Q15116); experiment: ELISA, coated PD-1-hFc, 0.04 µg/mL
[5] = molecular target: recombinant human PD-1^ECD-hFc protein (human) (UniProt Q15116); experiment: ELISA, coated PD-1-hFc, 0.2 µg/mL
[6] = molecular target: recombinant human PD-1^ECD-hFc protein (human) (UniProt Q15116); experiment: ELISA, coated PD-1-hFc, 1 µg/mL
[7] = molecular target: recombinant human PD-1^ECD-hFc protein (human) (UniProt Q15116); experiment: ELISA, coated PD-1-hFc, 0.0003 µg/mL
[8] = molecular target: recombinant human PD-1^ECD-hFc protein (human) (UniProt Q15116); experiment: ELISA, coated PD-1-hFc, 0.0001 µg/mL

Sequence of recombinant human PD-1^ECD-hFc protein (human) (Q15116 25-167): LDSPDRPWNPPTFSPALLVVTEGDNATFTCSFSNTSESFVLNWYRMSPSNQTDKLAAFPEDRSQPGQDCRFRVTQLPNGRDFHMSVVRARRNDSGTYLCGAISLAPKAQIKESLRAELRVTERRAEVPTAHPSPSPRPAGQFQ

“control protein (biotinylated non-PD-L1^ECD-hFc)” showed an OD450 nm [1] of 0.135, an OD450 nm [2] of 0.09 and an OD450 nm [3] of 0.19. For the same substance, the OD450 nm [4] was 0.49, the OD450 nm [5] was 0.1 and the OD450 nm [6] was 0.51. For the same substance, the OD450 nm [7] was 0.255 and the OD450 nm [8] was 0.12.
